Laboratory results taken from patent publication US20110269817.

Biological target: BMAL1 acetylated at Lys537 (ectopically expressed together with CLOCK), Q9WTL8
Sequence (Q9WTL8 other isoform, or with tags, fused parts or gaps): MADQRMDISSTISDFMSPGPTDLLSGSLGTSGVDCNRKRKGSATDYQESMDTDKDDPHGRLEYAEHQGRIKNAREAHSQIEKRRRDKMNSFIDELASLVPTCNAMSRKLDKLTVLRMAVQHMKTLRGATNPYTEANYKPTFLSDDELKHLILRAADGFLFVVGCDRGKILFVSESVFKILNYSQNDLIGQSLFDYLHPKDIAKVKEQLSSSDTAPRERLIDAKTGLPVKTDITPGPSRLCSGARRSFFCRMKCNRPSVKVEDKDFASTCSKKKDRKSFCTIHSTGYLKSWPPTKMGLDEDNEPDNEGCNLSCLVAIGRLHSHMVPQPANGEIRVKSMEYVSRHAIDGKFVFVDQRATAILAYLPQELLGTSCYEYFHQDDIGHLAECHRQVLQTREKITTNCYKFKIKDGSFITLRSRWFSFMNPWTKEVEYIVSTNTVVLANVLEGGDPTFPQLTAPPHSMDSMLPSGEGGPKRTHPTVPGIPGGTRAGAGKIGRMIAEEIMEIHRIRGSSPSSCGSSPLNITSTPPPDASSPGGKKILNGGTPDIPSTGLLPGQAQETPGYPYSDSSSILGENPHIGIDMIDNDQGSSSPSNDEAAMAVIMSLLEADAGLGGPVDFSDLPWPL

B1: Recombinant SIRT1 of the SIRT1 Fluorimetric Activity Assay/Drug Discovery Kit (AK-555; BIOMOL International) (protein)
chain: MADEAALALQPGGSPSAAGADREAASSPAGEPLRKRPRRDGPGLERSPGEPGGAAPEREVPAAARGCPGAAAAALWREAEAEAAAAGGEQEAQATAAAGEGDNGPGLQGPSREPPLADNLYDEDDDDEGEEEEEAAAAAIGYRDNLLFGDEIITNGFHSCESDEEDRASHASSSDWTPRPRIGPYTFVQQHLMIGTDPRTILKDLLPETIPPPELDDMTLWQIVINILSEPPKRKKRKDINTIEDAVKLLQECKKIIVLTGAGVSVSCGIPDFRSRDGIYARLAVDFPDLPDPQAMFDIEYFRKDPRPFFKFAKEIYPGQFQPSLCHKFIALSDKEGKLLRNYTQNIDTLEQVAGIQRIIQCHGSFATASCLICKYKVDCEAVRGDIFNQVVPRCPRCPADEPLAIMKPEIVFFGENLPEQFHRAMKYDKDEVDLLIVIGSSLKVRPVALIPSSIPHEVPQILINREPLPHLHFDVELLGDCDVIINELCHRLGGEYAKLCCNPVKLSEITEKPPRTQKELAYLSELPPTPLHVSEDSSSPERTSPPDSSVIVTLLDQAAKSNDDLDVSESKGCMEEKPQEVQTSRNVESIAEQMENPDLKNVGSSTGEKNERTSVAGTVRKCWPNRVAKEQISRRLDGNQYLFLPPNRYIFHGAEVYSDSEDDVLSSSSCGSNSDSGTCQSPSLEEPMEDESEIEEFYNGLEDEPDVPERAGGAGFGTDGDDQEAINEAISVKQEVTDMNYPSNKS
**Q.** How did the “in vitro deacetylation assay (immunoprecipitated Ac-BMAL1 with recombinant SIRT1, 5 mM NAD+ or 10 mM NAM, 90 min at 37 C; Western with Ac-BMAL1 antibody)” value turn out when B1 was run?
**A.** Its value is “SIRT1 readily deacetylates BMAL1 in an in vitro deacetylation assay”.
